Bridge positions count the residues as written; N and C are the ends. Square brackets hold non-standard residues; d marks the D form. Ends that are not written are not given here.

For test [1], the target named is human collagen type I (human) (UniProt P02452). Briefly: dried collagen assay, 5 uM peptide.
The target of test [2] is rat collagen type I (rat) (UniProt P02454). Briefly: dried collagen assay, 5 uM peptide.
Sequence of rat collagen type I (rat) (P02454 152-1207, chain 1 of 2): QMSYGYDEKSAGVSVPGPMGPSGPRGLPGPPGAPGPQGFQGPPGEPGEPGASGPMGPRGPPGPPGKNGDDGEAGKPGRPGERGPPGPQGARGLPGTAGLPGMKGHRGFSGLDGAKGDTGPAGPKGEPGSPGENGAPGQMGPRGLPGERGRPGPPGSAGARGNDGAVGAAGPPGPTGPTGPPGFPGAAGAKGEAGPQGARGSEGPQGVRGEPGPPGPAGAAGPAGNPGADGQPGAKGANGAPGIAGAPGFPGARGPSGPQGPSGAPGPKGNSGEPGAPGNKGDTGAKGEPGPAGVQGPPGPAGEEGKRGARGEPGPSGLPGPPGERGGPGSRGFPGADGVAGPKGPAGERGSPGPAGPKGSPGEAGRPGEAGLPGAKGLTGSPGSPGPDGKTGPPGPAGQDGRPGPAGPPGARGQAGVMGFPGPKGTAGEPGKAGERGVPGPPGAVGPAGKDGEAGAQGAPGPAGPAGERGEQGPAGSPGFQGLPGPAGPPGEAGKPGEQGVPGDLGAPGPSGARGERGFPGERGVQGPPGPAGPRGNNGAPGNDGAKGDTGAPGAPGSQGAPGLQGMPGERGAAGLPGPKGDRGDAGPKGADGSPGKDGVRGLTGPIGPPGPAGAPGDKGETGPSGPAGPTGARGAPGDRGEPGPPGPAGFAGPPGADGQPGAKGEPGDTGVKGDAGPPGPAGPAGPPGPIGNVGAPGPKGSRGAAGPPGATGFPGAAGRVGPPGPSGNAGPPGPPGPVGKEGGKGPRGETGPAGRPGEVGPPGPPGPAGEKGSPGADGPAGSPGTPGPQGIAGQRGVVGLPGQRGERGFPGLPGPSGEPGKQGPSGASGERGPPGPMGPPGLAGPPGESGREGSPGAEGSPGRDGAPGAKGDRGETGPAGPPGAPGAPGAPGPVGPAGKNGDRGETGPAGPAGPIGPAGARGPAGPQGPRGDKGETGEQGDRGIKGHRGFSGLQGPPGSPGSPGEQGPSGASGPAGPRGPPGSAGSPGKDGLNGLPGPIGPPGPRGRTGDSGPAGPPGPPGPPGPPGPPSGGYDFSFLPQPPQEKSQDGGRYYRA
Sequence of rat collagen type I (rat) (P02466 86-1125, chain 2 of 2, further chain): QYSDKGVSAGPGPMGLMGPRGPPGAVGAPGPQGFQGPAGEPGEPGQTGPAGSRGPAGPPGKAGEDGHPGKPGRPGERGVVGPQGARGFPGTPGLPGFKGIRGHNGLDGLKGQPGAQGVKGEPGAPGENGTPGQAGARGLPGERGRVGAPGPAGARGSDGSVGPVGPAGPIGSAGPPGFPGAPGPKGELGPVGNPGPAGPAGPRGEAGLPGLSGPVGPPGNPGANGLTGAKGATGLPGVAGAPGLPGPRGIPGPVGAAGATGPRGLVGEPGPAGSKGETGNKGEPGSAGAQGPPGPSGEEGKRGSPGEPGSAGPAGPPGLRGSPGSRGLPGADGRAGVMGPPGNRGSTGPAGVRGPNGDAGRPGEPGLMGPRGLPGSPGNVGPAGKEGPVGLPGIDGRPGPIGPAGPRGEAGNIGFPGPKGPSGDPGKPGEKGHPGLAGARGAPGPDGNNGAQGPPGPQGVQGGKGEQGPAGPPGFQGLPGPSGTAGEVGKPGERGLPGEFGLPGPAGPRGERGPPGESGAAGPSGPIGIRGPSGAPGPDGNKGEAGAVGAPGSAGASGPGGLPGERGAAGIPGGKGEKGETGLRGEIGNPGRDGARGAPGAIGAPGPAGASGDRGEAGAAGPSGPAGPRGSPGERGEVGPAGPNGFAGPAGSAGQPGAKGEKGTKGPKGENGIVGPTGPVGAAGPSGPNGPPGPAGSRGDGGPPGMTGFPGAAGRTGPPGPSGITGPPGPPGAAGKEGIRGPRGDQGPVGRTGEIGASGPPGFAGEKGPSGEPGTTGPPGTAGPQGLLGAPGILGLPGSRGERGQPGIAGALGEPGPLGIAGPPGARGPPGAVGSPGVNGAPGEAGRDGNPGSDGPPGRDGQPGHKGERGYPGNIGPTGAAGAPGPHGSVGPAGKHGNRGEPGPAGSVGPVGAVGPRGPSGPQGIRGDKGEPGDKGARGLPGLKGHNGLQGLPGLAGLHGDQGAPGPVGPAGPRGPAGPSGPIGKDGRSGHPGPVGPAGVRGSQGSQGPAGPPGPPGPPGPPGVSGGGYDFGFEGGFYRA

Sequence of human collagen type I (human) (P02452 162-1218 limits assumed, chain 1 of 2): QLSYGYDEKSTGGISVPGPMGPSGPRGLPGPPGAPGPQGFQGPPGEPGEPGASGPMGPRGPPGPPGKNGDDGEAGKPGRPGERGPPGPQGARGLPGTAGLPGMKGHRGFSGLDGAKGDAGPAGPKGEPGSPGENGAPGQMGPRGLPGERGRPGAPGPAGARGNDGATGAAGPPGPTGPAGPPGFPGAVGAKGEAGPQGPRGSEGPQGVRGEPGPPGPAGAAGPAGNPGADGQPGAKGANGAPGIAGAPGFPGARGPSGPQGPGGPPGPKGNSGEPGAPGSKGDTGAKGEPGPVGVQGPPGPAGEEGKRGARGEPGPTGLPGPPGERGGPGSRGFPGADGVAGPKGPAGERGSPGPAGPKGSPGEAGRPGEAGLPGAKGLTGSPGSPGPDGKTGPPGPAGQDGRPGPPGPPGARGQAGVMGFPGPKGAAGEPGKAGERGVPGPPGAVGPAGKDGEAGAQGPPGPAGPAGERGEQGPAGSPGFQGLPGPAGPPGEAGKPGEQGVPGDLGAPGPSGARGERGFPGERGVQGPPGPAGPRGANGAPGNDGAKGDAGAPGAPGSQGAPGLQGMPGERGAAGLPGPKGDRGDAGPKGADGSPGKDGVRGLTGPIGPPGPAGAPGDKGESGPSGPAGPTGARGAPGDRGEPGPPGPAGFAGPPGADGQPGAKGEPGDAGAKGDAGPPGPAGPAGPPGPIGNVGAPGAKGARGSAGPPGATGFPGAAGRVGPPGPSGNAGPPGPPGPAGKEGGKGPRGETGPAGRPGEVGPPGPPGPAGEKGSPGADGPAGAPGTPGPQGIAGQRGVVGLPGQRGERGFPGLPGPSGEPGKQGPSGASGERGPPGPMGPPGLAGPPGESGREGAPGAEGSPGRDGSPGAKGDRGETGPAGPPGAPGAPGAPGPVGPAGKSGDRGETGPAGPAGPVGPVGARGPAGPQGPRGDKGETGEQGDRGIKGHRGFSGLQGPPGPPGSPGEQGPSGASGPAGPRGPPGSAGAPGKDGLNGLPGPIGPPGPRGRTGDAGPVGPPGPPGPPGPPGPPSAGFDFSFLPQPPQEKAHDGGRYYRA
Sequence of human collagen type I (human) (P08123 80-1119 limits assumed, chain 2 of 2, further chain): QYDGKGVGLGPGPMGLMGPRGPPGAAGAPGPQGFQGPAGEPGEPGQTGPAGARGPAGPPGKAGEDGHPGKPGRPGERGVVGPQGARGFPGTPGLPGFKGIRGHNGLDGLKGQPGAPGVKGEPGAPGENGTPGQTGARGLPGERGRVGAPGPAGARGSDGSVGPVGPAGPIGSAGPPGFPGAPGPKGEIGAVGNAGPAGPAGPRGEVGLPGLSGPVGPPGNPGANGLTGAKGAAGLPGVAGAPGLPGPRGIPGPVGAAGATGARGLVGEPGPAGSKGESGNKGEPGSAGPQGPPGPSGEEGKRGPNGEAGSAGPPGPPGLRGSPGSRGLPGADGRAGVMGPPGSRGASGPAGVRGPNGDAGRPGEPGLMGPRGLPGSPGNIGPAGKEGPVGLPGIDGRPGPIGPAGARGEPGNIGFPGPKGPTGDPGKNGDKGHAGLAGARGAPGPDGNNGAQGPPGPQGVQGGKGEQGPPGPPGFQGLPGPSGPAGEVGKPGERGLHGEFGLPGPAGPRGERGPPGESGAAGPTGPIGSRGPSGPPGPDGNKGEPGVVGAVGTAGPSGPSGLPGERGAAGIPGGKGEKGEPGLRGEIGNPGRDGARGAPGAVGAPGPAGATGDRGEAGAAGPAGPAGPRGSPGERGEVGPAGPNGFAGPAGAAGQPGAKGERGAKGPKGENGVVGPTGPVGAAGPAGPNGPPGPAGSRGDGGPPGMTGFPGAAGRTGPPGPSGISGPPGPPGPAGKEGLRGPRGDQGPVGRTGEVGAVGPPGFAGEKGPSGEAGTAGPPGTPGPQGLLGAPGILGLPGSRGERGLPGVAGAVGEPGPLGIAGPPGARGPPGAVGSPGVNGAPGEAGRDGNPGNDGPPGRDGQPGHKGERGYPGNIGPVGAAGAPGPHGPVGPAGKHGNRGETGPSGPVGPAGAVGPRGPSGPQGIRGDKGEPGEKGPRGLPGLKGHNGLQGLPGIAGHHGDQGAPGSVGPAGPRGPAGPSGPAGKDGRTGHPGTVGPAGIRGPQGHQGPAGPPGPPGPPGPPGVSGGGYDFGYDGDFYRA

B1: SEQ ID NO: 180 (peptide)
peptide: DWTCS[dS]DEYTWHCNYE
modifications: disulfide 4-13 (inferred); not fully specified (C-terminus); printed as D W T C S s D E Y T W H C N Y E
B1 registered a % Collagen Binding, Dried Human in test [1] of 81%. For the same molecule, the % Collagen Binding, Dried Rat in test [2] is 72%.

B2: SEQ ID NO: 183 (peptide)
peptide: DWTCS[dL]DEYTWHCNYE
modifications: disulfide 4-13 (inferred); not fully specified (C-terminus); printed as D W T C S l D E Y T W H C N Y E
In turn, B2 showed a % Collagen Binding, Dried Human in test [1] of 73%. This molecule also showed a % Collagen Binding, Dried Rat in test [2] of 63%.

B3: SEQ ID NO: 182 (peptide)
peptide: DWTCS[dY]DEYTWHCNYE
modifications: disulfide 4-13 (inferred); not fully specified (C-terminus); printed as D W T C S y D E Y T W H C N Y E
Consider B3, for which, in test [1], the % Collagen Binding, Dried Human worked out at 89%. The molecule further displayed a % Collagen Binding, Dried Rat in test [2] of 86%.

B4: SEQ ID NO: 181 (peptide)
peptide: DWTCS[dR]DEYTWHCNYE
modifications: disulfide 4-13 (inferred); not fully specified (C-terminus); printed as D W T C S r D E Y T W H C N Y E
For the molecule B4, in test [1], the % Collagen Binding, Dried Human came to 87%. In addition, the % Collagen Binding, Dried Rat in test [2] came to 86%.

The values are drawn from US20120114557A1.
